This note sets out measurements from patent US20040053355A1, “Modular approach to on-line synthesis, drug discovery and biochemical transformations using immobilized enzyme reactors” (priority 2000, published 2004).

For orientation: Km means the substrate concentration at which the rate is half of its maximum. What is called Vmax is the rate approached at saturating substrate.

Substrate in data set [1]: COc1cc(C(O)CN)ccc1O
Description: Non-immobilized PNMT activity assay, batch incubation with HPLC-fluorescence analysis. Format: biochemical, bovine. As to conditions: other: non-immobilized PNMT; 37.0 °C.

Substrate in data set [2]: COc1cc(C(O)CN)ccc1O
As to the kind of experiment: PNMT immobilized on Glut-P stationary phase (PNMT-SP), batch assay. As to conditions: other: PNMT-SP, Table 5; pH 8.3; 37.0 °C. Format: biochemical, bovine.

Substrate in data set [3]: COc1cc(C(O)CN)ccc1O
Description: On-line PNMT immobilized enzyme reactor (PNMT-IMER) HPLC system. Format: biochemical, bovine. The note with it: other: PNMT-IMER, 0.2 ml/min, contact time 20 min, 37° C., n = 2, pH 8.3.

Substrate in data set [4]: NCCc1ccc(O)cc1
Description: Non-immobilized DBH activity assay, batch incubation with HPLC-fluorescence analysis. Format: biochemical, bovine. The note with it: other: non-immobilized DBH; Lineweaver-Burke; 37.0 °C.

Substrate in data set [5]: O=C1O[C@H]([C@@H](O)CO)C(O)=C1O
The data set is described as above. Format: biochemical, bovine. The note with it: other: non-immobilized DBH; Lineweaver-Burke; 37.0 °C.

Substrate in data set [6]: NCCc1ccc(O)c(O)c1
As to the kind of experiment: purified protein, by the assay type. As to conditions: other: non-immobilized DBH; Lineweaver-Burke; 37.0 °C.

B1: phenylethanolamine N-methyltransferase (PNMT), non-immobilized (Bos taurus) (protein)
chain: MSGTDRSQAAGAVPDSDPGLAAVSSAYQRFEPRAYLRNNYAPPRGDLSCPDGVGPWKLRCLAQTFATGEVSGRTLIDIGSGPTIYQLLSACAHFEDITMTDFLEVNRQELRLWLREEPGAFDWSVYSQHVCLIEGKGESWQEKECQLRARVKRILPIDVHRPQPLGAGGLAPLPADALVSAFCLEAVSPDLASFQRALDHITTLLRPGGHLLLIGALEESWYLAGEARLAVVPVREEEVREALVRTATRCGICARTPMPAHLQTGVDDVKGIFFTRAQKKVGV
For the protein B1, the Km in data set [1] is 109 µM.

B2: PNMT-Glut-P stationary phase (PNMT-SP) (Bos taurus) (protein)
chain: MSGTDRSQAAGAVPDSDPGLAAVSSAYQRFEPRAYLRNNYAPPRGDLSCPDGVGPWKLRCLAQTFATGEVSGRTLIDIGSGPTIYQLLSACAHFEDITMTDFLEVNRQELRLWLREEPGAFDWSVYSQHVCLIEGKGESWQEKECQLRARVKRILPIDVHRPQPLGAGGLAPLPADALVSAFCLEAVSPDLASFQRALDHITTLLRPGGHLLLIGALEESWYLAGEARLAVVPVREEEVREALVRTATRCGICARTPMPAHLQTGVDDVKGIFFTRAQKKVGV
Turning to B2, the Km in data set [2] is 152 µM.

B3: PNMT-IMER (immobilized phenylethanolamine N-methyltransferase) (Bos taurus) (protein)
chain: MSGTDRSQAAGAVPDSDPGLAAVSSAYQRFEPRAYLRNNYAPPRGDLSCPDGVGPWKLRCLAQTFATGEVSGRTLIDIGSGPTIYQLLSACAHFEDITMTDFLEVNRQELRLWLREEPGAFDWSVYSQHVCLIEGKGESWQEKECQLRARVKRILPIDVHRPQPLGAGGLAPLPADALVSAFCLEAVSPDLASFQRALDHITTLLRPGGHLLLIGALEESWYLAGEARLAVVPVREEEVREALVRTATRCGICARTPMPAHLQTGVDDVKGIFFTRAQKKVGV
As to B3, the Km in data set [3] amounted to 384 µM.

B4: dopamine beta-hydroxylase (DBH), non-immobilized (Bos taurus) (protein)
chain: MQVPSPSVREAASMYGTAVAVFLVILVAALQGSAPAESPFPFHIPLDPEGTLELSWNISYAQETIYFQLLVRELKAGVLFGMSDRGELENADLVVLWTDRDGAYFGDAWSDQKGQVHLDSQQDYQLLRAQRTPEGLYLLFKRPFGTCDPNDYLIEDGTVHLVYGFLEEPLRSLESINTSGLHTGLQRVQLLKPSIPKPALPADTRTMEIRAPDVLIPGQQTTYWCYVTELPDGFPRHHIVMYEPIVTEGNEALVHHMEVFQCAAEFETIPHFSGPCDSKMKPQRLNFCRHVLAAWALGAKAFYYPEEAGLAFGGPGSSRFLRLEVHYHNPLVITGRRDSSGIRLYYTAALRRFDAGIMELGLAYTPVMAIPPQETAFVLTGYCTDKCTQLALPASGIHIFASQLHTHLTGRKVVTVLARDGRETEIVNRDNHYSPHFQEIRMLKKVVSVQPGDVLITSCTYNTEDRRLATVGGFGILEEMCVNYVHYYPQTQLELCKSAVDPGFLHKYFRLVNRFNSEEVCTCPQASVPEQFASVPWNSFNREVLKALYGFAPISMHCNRSSAVRFQGEWNRQPLPEIVSRLEEPTPHCPASQAQSPAGPTVLNISGGKG
notes: purchased
As for B4, the Michaelis-Menten constant (Km) in data set [4] came out at 2850 µM; in data set [5] it was 620 µM; in data set [6], 5030 µM. Also, the maximum rate (Vmax) in data set [5] is 0.185 µmol/mg/min.
